For assay [1], the target named is T1, Fas ligand peptide VMMEGKMMSYCTTGQ (223-237 positions) (human).
T1 construct: Synthetic 15-mer immobilized on a PepSet pin
T1 peptide: VMMEGKMMSYCTTGQ
Description: PepSet pin ELISA, hybridoma culture supernatant, HRP anti-mouse IgG. How it is done:
(§1) (9) After removal of the pins of PepSet from the plate, 50 μl of 2N H_2SO_4 was added to the wells to quench the reaction.
(§2) Thus, it has been shown that the anti-Fas ligand antibody produced by NOK1 and NOK4 hybridomas recognize the region, […]-[…] (SEQ ID NO:139), of Fas ligand, whereas the anti-Fas ligand antibody of NOK2 hybridoma recognizes the region, […]-[…] (SEQ ID NO:140), of Fas ligand.
On the technique in general: In an ELISA, binding on a coated surface is turned into a signal by an enzyme label.

In assay [2] the target is T2, Fas ligand peptide YPQDLVMMEGKMMSY (218-232 positions) (human).
T2 construct: Synthetic 15-mer immobilized on a PepSet pin
T2 peptide: YPQDLVMMEGKMMSY
The description is as above. The protocol:
as §1, §2

The target of assay [3] is T3, Fas ligand peptide KMMSYCTTGQMWARS (228-242 positions) (human).
T3 construct: Synthetic 15-mer immobilized on a PepSet pin
T3 peptide: KMMSYCTTGQMWARS
Described as above. The protocol: as §1, §2

Assay [4] deals with T4, soluble Fas ligand molecule (human Fas ligand released into the supernatant of COS cells transfected with … (human, UniProt P48023 130-281, limits assumed)).
T4 sequence (looked up): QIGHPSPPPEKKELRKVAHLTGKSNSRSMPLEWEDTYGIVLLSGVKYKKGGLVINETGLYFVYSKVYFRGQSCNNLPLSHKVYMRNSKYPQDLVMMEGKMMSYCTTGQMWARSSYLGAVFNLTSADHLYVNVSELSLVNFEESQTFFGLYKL
Description: cell-based or functional assay.

Where a chain is given by its changes, count along the chain named.

B1: NOK2 antibody (mouse anti-Fas ligand monoclonal antibody of hybridoma NOK2, FERM BP-5045) (antibody, V domains shown)
VH: QVHLQQSGAELVRPGTSVKMSCKAAGYTFTNYWIGWVKQRPGHGLEWIGYLYPGGLYTNYNEKFKGKATLTADTSSSTAYMQLSSLTSEDSAIYYCARYRDYDYAMDYWGQGTSVTVSS
VL: DVVLTQTPLSLPVNIGDQASISCKSTKSLLNSDGFTYLGWCLQKPGQSPQLLIYLVSNRFSGVPDRFSGSGSGTDFTLKISRVEAEDLGVYYCFQSNYLPLTFGSGTKLEIKR
notes: Mouse IgG, purified on protein G; kappa light chain; Those are derived from the cloned PCR product and may hold leader or primer residues; also called mouse NOK2 immunoglobulin; NOK2 immunoglobulin
In the case of B1, the binding result in assay [1], in assay [2] and in assay [3] was “binds” in each case.

B2: RNOK201 (humanized NOK2 antibody, RNOK2VHver11 with RNOK2VLver1) (antibody, V domains shown)
VH: QVQLVQSGAEVKKPGASVKVSCKASGYTFTNYWIGWVKQAPGQGLEWIGYLYPGGLYTNYNEKFKGKATMTADTSTNTAYMELSSLRSEDTAVYYCARYRDYDYAMDYWGQGTLVTVSS
VL: DVVMTQTPSSLSASVGDRASISCKSTKSLLNSDGFTYLGWCQQKPGQSPQLLIYLVSNRFSGVPDRFSGSGSGTDFTLKISSLQPEDIATYYCFQSNYLPLTFGQGTKVEIKR
With B2, the “apoptosis inhibition: viable rate of Fas-WR19L target cells with soluble Fas ligand, Alamar Blue fluorescence, 17 h” value (shortened to “apoptosis inhibition: viable rate”) in assay [4] is at least 90%.

B3: RNOK202 (humanized NOK2 antibody, RNOK2VHver11 with RNOK2VLver21) (antibody, V domains shown)
VH: B2 VH
VL: B1 VL with L4M, N14T, I15P, D17E, Q18P, L88V, S105Q
Turning to B3, in assay [4], the “apoptosis inhibition: viable rate” value was at least 90%.

B4: RNOK203 (humanized NOK2 antibody, RNOK2VHver11 with RNOK2VLver22) (antibody, V domains shown)
VH: B2 VH
VL: B1 VL with L4M, N14T, I15L, D17Q, Q18P, L88V, S105Q
Turning to B4, the “apoptosis inhibition: viable rate” value in assay [4] is at least 90%.

These data come from US6777540 (dated 2004).
